Reference: patent publication US20260152573A1

What was measured:
[1] = biological target: neonatal Fc receptor (FcRn), endogenous in U937 cells (human) (UniProt P55899); assay: cell-based FcRn occupancy assay on U937 cells, flow cytometry; free FcRn stained with anti-FcRn-Fab AF647
[2] = biological target: FcRn-L322A/L323A expressed in HEK293 cells (human) (UniProt P55899); assay: FcRn occupancy, FACS, HEK293-FcRn-mut cells, with albumin
[3] = biological target: FcRn (cells of the occupancy assay not stated) (UniProt P55899); assay: FcRn occupancy assay, cells not given
[4] = biological target: FcRn-L322A/L323A expressed in HEK293 cells (human) (UniProt P55899); assay: FcRn occupancy, FACS, HEK293-FcRn-mut cells, without albumin
[5] = biological target: neonatal Fc receptor (FcRn), endogenous in U937 cells (human) (UniProt P55899); assay: FcRn occupancy, FACS, U937 cells, with albumin

Sequence of neonatal Fc receptor (FcRn), endogenous in U937 cells (human) (P55899 24-365 limits assumed, chain 1 of 2): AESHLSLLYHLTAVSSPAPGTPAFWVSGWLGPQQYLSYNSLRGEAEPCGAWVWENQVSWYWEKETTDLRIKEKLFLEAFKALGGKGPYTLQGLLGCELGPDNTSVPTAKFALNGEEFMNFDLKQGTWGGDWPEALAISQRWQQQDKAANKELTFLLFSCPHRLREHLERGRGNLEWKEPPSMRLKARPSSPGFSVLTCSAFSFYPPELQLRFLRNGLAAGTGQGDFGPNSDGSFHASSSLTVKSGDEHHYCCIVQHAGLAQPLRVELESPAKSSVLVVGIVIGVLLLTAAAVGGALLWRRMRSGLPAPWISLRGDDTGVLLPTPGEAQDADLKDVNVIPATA
Sequence of neonatal Fc receptor (FcRn), endogenous in U937 cells (human) (chain, as listed by the source limits assumed, chain 2 of 2): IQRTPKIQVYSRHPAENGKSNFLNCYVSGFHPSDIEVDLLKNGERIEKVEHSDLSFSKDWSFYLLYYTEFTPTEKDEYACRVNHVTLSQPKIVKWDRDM

efgartigimod was tested, and the IC50 (read off the curve) [1] was 0.3 nM, the % max occupancy [2] was 57.7% and the IC50 [2] was 16.1 nM. It also gave an IC50 [3] of 6 nM, an IC50 [4] of 6.8 nM and a % max occupancy [5] of 56.8%. For the same substance, the IC50 [5] was 4.8 nM.
